In patent US20090111745A1:
Read-outs that look alike come from different tables or passages of the source. Each block holds one substance with its values, some of them ahead of it.

Experiments:
[1] = target: interleukin-1 type 1 receptor (human) (UniProt P14778); assay: cell-based or functional assay
[2] = target: human serum albumin (human) (UniProt P02768)
[3] = target: human serum albumin (human) (UniProt P02768); assay: sandwich ELISA, HSA coated at 10 µg/ml, control at 1 µM, detection with anti-FITC antibody

uncoupled saporin (enzyme), sequence (P20656 25-277): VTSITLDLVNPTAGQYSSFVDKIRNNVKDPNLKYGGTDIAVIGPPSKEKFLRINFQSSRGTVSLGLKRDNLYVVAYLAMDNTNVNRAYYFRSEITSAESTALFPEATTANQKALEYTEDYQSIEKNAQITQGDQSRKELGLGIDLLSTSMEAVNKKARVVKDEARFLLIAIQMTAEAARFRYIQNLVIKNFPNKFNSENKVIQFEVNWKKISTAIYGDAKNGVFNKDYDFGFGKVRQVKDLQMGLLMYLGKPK
recombinant human IL-1ra (R&D systems), sequence (P18510 other isoform, or with tags, fused parts or gaps): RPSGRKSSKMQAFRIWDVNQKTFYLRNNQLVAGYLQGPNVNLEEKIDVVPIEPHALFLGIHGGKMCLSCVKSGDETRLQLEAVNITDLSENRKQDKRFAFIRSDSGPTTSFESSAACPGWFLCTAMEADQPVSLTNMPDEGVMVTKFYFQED
interleukin-1 type 1 receptor (human), sequence (P14778 18-569): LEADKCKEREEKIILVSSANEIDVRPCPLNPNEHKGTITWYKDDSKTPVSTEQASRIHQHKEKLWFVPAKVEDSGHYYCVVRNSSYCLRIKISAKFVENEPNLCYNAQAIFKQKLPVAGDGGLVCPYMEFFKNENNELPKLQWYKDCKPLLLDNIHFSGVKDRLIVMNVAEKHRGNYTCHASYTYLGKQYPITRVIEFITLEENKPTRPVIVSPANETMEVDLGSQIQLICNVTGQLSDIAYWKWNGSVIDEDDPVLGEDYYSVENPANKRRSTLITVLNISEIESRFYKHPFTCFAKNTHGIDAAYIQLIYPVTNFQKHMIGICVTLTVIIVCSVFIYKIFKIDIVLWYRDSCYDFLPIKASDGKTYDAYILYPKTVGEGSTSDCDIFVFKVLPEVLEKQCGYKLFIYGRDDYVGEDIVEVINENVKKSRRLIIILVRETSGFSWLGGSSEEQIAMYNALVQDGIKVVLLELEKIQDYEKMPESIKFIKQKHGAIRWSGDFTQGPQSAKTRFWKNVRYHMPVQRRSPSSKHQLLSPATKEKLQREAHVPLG

ND50 (neutralizing dose 50), IL-1-induced IL-8 secretion by MRC-5 cells [1]: 0.5 nM
Substance: recombinant human IL-1ra (R&D systems) (from UniProt P18510 26-176) (ligand)

Substance: uncoupled saporin (enzyme)
OD600 [2]: 0.079 OD600

OD600 [3]: 0.049 OD600
Substance: control FITC coupled antibody
